This note sets out measurements from the supplement of paper PMC6755084.

The data set deals with F1*sub RNA substrate (template-directed ligation). The data set is described as follows: fraction ligated after 30 min (ligated reads / total reads); higher = more ligase activity; sequences stand for … in GAGACCGCAACTGAAAAGTTGT…AGTTCTGCACGTAGAAGCAAAAGGC
Conditions: 42 °C. In short, it runs like this: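 Ribozyme variants were transcribed with T7 from PCR-amplified oligo-pool templates and gel-purified. Ligated and unligated bands, separated on gel, were reverse transcribed with barcoded primers and sequenced on a MiSeq, with core bases filtered at quality ≥20. Fraction ligated per variant was computed as ligated reads divided by total reads.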
Sequence “TATCATTGTCGTAAGACACTTGGATGGTTGA [3d1273]” yielded a fraction ligated of 0.395.

“TATCATTGTCGTAAGACACTTGGTGGGTTGA [3d1271]” returned a fraction ligated of 0.482.

Take “TATCATTGTCGTAAGACACTTTATGGGTTGA [3d1276]”: the fraction ligated stood at 0.0281.

In turn, “TATCATTGTCGTAAGACACTTTGAGGGTTGA [3d1278]” returned a fraction ligated of 0.00985.

Regarding “TATCATTGTCGTAAGACACTTTGATGGGTTA [3d1280]”, the fraction ligated was determined as 0.158.

With “TATCATTGTCGTAAGACACTTTGATGGGTTG [3d1281]”, the fraction ligated was 0.765.

Take “TATCATTGTCGTAAGACACTTTGATGGTTGA [3d1279]”: the fraction ligated stood at 0.027.

In turn, “TATCATTGTCGTAAGACACTTTGGAGGGTTA [3d1287]” gave a fraction ligated of 0.0162.

“TATCATTGTCGTAAGACACTTTGGAGGGTTG [3d1288]” came in with a fraction ligated of 0.0338.

As to “TATCATTGTCGTAAGACACTTTGGAGGTTGA [3d1286]”, the fraction ligated turned out to be 0.0106.

In turn, “TATCATTGTCGTAAGACACTTTGGATGGGTT [3d1291]” had a fraction ligated of 0.0919.

Consider “TATCATTGTCGTAAGACACTTTGGATGGGTTA [2d126]”, for which the fraction ligated worked out at 0.67.

For “TATCATTGTCGTAAGACACTTTGGATGGGTTG [2d127]”, the fraction ligated was 0.784.

The sequence TATCATTGTCGTAAGACACTTTGGATGGGTTGA [1d6] registered a fraction ligated of 0.796.

On to “TATCATTGTCGTAAGACACTTTGGATGGTTA [3d1289]”, for which the fraction ligated was determined as 0.203.

“TATCATTGTCGTAAGACACTTTGGATGGTTG [3d1290]” showed a fraction ligated of 0.299.

The sequence “TATCATTGTCGTAAGACACTTTGGATGGTTGA [2d125]” came in with a fraction ligated of 0.456.

In turn, “TATCATTGTCGTAAGACACTTTGGGGGTTGA [3d1282]” yielded a fraction ligated of 0.0386.

As to “TATCATTGTCGTAAGACACTTTGGTGGGTTA [3d1284]”, the fraction ligated was 0.0335.

“TATCATTGTCGTAAGACACTTTGGTGGGTTG [3d1285]” yielded a fraction ligated of 0.247.

“TATCATTGTCGTAAGACACTTTGGTGGTTGA [3d1283]” came in with a fraction ligated of 0.0252.

Take “TATCATTGTCGTAAGACACTTTGTGGGTTGA [3d1277]”: the fraction ligated amounted to 0.0371.

In turn, “TATCATTGTCGTAAGACATTGGATGGGTTGA [3d1262]” showed a fraction ligated of 0.801.

For the sequence “TATCATTGTCGTAAGACATTTGATGGGTTGA [3d1263]”, the fraction ligated came out at 0.787.

Sequence “TATCATTGTCGTAAGACATTTGGAGGGTTGA [3d1265]” gave a fraction ligated of 0.23.

“TATCATTGTCGTAAGACATTTGGATGGGTTA [3d1267]”: the fraction ligated came out at 0.659.

On to “TATCATTGTCGTAAGACATTTGGATGGGTTG [3d1268]”, for which the fraction ligated came out at 0.766.

Take “TATCATTGTCGTAAGACATTTGGATGGTTGA [3d1266]”: the fraction ligated amounted to 0.567.

Consider “TATCATTGTCGTAAGACATTTGGTGGGTTGA [3d1264]”, for which the fraction ligated is 0.421.

Sequence “TATCATTGTCGTAAGACCTTGGATGGGTTGA [3d1255]” registered a fraction ligated of 0.804.

In turn, “TATCATTGTCGTAAGACCTTTGATGGGTTGA [3d1256]” had a fraction ligated of 0.778.

Take “TATCATTGTCGTAAGACCTTTGGAGGGTTGA [3d1258]”: the fraction ligated was 0.104.

Sequence “TATCATTGTCGTAAGACCTTTGGATGGGTTA [3d1260]” displayed a fraction ligated of 0.697.

With “TATCATTGTCGTAAGACCTTTGGATGGGTTG [3d1261]”, the fraction ligated worked out at 0.778.

The sequence “TATCATTGTCGTAAGACCTTTGGATGGTTGA [3d1259]” showed a fraction ligated of 0.493.

In turn, “TATCATTGTCGTAAGACCTTTGGTGGGTTGA [3d1257]” displayed a fraction ligated of 0.426.

For “TATCATTGTCGTAAGACTTTGGATGGGTTGA [3d1237]”, the fraction ligated came out at 0.802.

Sequence “TATCATTGTCGTAAGCACTTGGATGGGTTGA [3d1240]” displayed a fraction ligated of 0.771.

The sequence “TATCATTGTCGTAAGCACTTTGATGGGTTGA [3d1241]” returned a fraction ligated of 0.58.

The sequence “TATCATTGTCGTAAGCACTTTGGAGGGTTGA [3d1243]” displayed a fraction ligated of 0.0203.

The sequence “TATCATTGTCGTAAGCACTTTGGATGGGTTA [3d1245]” came in with a fraction ligated of 0.474.

With “TATCATTGTCGTAAGCACTTTGGATGGGTTG [3d1246]”, the fraction ligated turned out to be 0.767.

For “TATCATTGTCGTAAGCACTTTGGATGGTTGA [3d1244]”, the fraction ligated was 0.0553.

In the case of “TATCATTGTCGTAAGCACTTTGGTGGGTTGA [3d1242]”, the fraction ligated amounted to 0.0707.

“TATCATTGTCGTAAGCATTTGGATGGGTTGA [3d1239]” came in with a fraction ligated of 0.796.

Take “TATCATTGTCGTAAGCCTTTGGATGGGTTGA [3d1238]”: the fraction ligated stood at 0.798.

For “TATCATTGTCGTAGAACTTTGGATGGGTTGA [3d1217]”, the fraction ligated stood at 0.864.

“TATCATTGTCGTAGACACTTGGATGGGTTGA [3d1220]” had a fraction ligated of 0.752.

Turning to “TATCATTGTCGTAGACACTTTGATGGGTTGA [3d1221]”, the fraction ligated worked out at 0.774.

The sequence “TATCATTGTCGTAGACACTTTGGAGGGTTGA [3d1223]” came in with a fraction ligated of 0.0919.

As to “TATCATTGTCGTAGACACTTTGGATGGGTTA [3d1225]”, the fraction ligated was found to be 0.595.

Take “TATCATTGTCGTAGACACTTTGGATGGGTTG [3d1226]”: the fraction ligated was determined as 0.799.

“TATCATTGTCGTAGACACTTTGGATGGGTTGA [2d115]” had a fraction ligated of 0.798.

Turning to “TATCATTGTCGTAGACACTTTGGATGGTTGA [3d1224]”, the fraction ligated was 0.305.

Sequence “TATCATTGTCGTAGACACTTTGGTGGGTTGA [3d1222]” showed a fraction ligated of 0.356.

“TATCATTGTCGTAGACATTTGGATGGGTTGA [3d1219]” gave a fraction ligated of 0.809.

On to “TATCATTGTCGTAGACCTTTGGATGGGTTGA [3d1218]”, for which the fraction ligated came out at 0.788.

In turn, “TATCATTGTCGTAGCACTTTGGATGGGTTGA [3d1216]” displayed a fraction ligated of 0.814.

Regarding “TATCATTGTCGTGACACTTTGGATGGGTTGA [3d1214]”, the fraction ligated is 0.792.

With “TATCATTGTCTAAACACTTTGGATGGGTTGA [3d1189]”, the fraction ligated stood at 0.785.

“TATCATTGTCTAAGAACTTTGGATGGGTTGA [3d1191]”: the fraction ligated came out at 0.803.

Turning to “TATCATTGTCTAAGACACTTGGATGGGTTGA [3d1194]”, the fraction ligated was 0.78.

The sequence “TATCATTGTCTAAGACACTTTGATGGGTTGA [3d1195]” displayed a fraction ligated of 0.751.

Regarding “TATCATTGTCTAAGACACTTTGGAGGGTTGA [3d1197]”, the fraction ligated was found to be 0.0716.

The sequence “TATCATTGTCTAAGACACTTTGGATGGGTTA [3d1199]” had a fraction ligated of 0.477.

“TATCATTGTCTAAGACACTTTGGATGGGTTG [3d1200]” gave a fraction ligated of 0.769.

“TATCATTGTCTAAGACACTTTGGATGGGTTGA [2d113]” showed a fraction ligated of 0.785.

Sequence “TATCATTGTCTAAGACACTTTGGATGGTTGA [3d1198]” gave a fraction ligated of 0.169.

For the sequence “TATCATTGTCTAAGACACTTTGGTGGGTTGA [3d1196]”, the fraction ligated worked out at 0.222.

For “TATCATTGTCTAAGACATTTGGATGGGTTGA [3d1193]”, the fraction ligated is 0.778.

In turn, “TATCATTGTCTAAGACCTTTGGATGGGTTGA [3d1192]” had a fraction ligated of 0.758.

Sequence “TATCATTGTCTAAGCACTTTGGATGGGTTGA [3d1190]” registered a fraction ligated of 0.765.

As for “TATCATTGTCTAGACACTTTGGATGGGTTGA [3d1188]”, the fraction ligated was determined as 0.765.

Sequence “TATCATTGTGAAGACACTTTGGATGGGTTGA [3d1173]” gave a fraction ligated of 0.824.

As to “TATCATTGTGTAAACACTTTGGATGGGTTGA [3d1175]”, the fraction ligated is 0.82.

Consider “TATCATTGTGTAAGAACTTTGGATGGGTTGA [3d1177]”, for which the fraction ligated came out at 0.856.

Sequence “TATCATTGTGTAAGACACTTGGATGGGTTGA [3d1180]” registered a fraction ligated of 0.799.

On to “TATCATTGTGTAAGACACTTTGATGGGTTGA [3d1181]”, for which the fraction ligated worked out at 0.308.

For the sequence “TATCATTGTGTAAGACACTTTGGAGGGTTGA [3d1183]”, the fraction ligated was 0.0175.

“TATCATTGTGTAAGACACTTTGGATGGGTTA [3d1185]” showed a fraction ligated of 0.677.

With “TATCATTGTGTAAGACACTTTGGATGGGTTG [3d1186]”, the fraction ligated came out at 0.786.

“TATCATTGTGTAAGACACTTTGGATGGGTTGA [2d112]” returned a fraction ligated of 0.824.

Sequence “TATCATTGTGTAAGACACTTTGGATGGTTGA [3d1184]” returned a fraction ligated of 0.0387.

For “TATCATTGTGTAAGACACTTTGGTGGGTTGA [3d1182]”, the fraction ligated worked out at 0.0386.

For the sequence “TATCATTGTGTAAGACATTTGGATGGGTTGA [3d1179]”, the fraction ligated was found to be 0.839.

As for “TATCATTGTGTAAGACCTTTGGATGGGTTGA [3d1178]”, the fraction ligated is 0.875.

“TATCATTGTGTAAGCACTTTGGATGGGTTGA [3d1176]”: the fraction ligated came to 0.86.

Take “TATCATTGTGTAGACACTTTGGATGGGTTGA [3d1174]”: the fraction ligated was 0.856.

The sequence “TATCATTGTTAAGACACTTTGGATGGGTTGA [3d1172]” had a fraction ligated of 0.798.

On to “TATCATTTCGAAGACACTTTGGATGGGTTGA [3d1142]”, for which the fraction ligated came to 0.812.

For “TATCATTTCGTAAACACTTTGGATGGGTTGA [3d1144]”, the fraction ligated came to 0.806.

In turn, “TATCATTTCGTAAGAACTTTGGATGGGTTGA [3d1146]” came in with a fraction ligated of 0.857.

Sequence “TATCATTTCGTAAGACACTTGGATGGGTTGA [3d1149]” displayed a fraction ligated of 0.763.

In the case of “TATCATTTCGTAAGACACTTTGATGGGTTGA [3d1150]”, the fraction ligated came to 0.799.

For the sequence “TATCATTTCGTAAGACACTTTGGAGGGTTGA [3d1152]”, the fraction ligated came out at 0.042.

In turn, “TATCATTTCGTAAGACACTTTGGATGGGTTA [3d1154]” came in with a fraction ligated of 0.313.

“TATCATTTCGTAAGACACTTTGGATGGGTTG [3d1155]” yielded a fraction ligated of 0.769.
